The text below walks through data of patent publication US20030099984A1 (TEXAS A AND M UNIVERSITY SYSTEM, published 2003).

Data set [1] concerns the molecule itself. Put plainly: yeast two-hybrid, beta-galactosidase filter assay; bait and prey RNase H-like protein.
Data set [2] concerns the target T1, untagged hen egg white lysozyme (hen, UniProt P00698 19-147).
T1 construct: Negative control; also called HEWL
Put plainly: farwestern blot (FIG. 13), control lane.

The target in data set [3] is T2, untagged RNase A (UniProt P61823 27-150).
T2 construct: Negative control
T2 sequence: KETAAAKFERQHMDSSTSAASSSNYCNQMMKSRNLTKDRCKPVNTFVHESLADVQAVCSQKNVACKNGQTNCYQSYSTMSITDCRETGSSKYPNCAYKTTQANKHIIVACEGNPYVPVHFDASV
Put plainly: farwestern blot (FIG. 13), control lane.

In data set [4] the target is T3, untagged bovine serum albumen (bovine, UniProt P02769 25-607).
T3 construct: Negative control; also called BSA
T3 sequence (P02769 25-607 limits assumed): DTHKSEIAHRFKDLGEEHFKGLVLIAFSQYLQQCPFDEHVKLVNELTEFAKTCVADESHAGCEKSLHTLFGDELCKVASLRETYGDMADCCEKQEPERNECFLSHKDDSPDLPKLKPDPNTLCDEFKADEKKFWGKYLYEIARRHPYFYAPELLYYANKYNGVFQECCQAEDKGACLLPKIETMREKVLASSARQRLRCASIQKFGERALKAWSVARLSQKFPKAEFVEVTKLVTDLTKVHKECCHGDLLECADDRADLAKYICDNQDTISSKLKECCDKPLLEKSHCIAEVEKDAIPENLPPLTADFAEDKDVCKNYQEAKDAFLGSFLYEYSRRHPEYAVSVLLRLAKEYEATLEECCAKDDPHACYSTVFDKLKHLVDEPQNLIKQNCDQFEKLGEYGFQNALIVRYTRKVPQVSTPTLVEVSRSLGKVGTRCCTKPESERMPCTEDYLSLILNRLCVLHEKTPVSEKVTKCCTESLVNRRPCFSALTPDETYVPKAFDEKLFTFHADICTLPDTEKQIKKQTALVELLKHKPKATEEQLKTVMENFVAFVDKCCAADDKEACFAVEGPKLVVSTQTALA
Put plainly: Ni column pull down under physiological conditions, SDS PAGE autoradiogram.

T1 sequence (P00698 19-147): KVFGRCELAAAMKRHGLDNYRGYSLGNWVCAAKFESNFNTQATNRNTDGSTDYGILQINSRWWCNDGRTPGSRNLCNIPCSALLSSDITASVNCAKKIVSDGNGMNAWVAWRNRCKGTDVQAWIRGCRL

B1: RNase H-like protein (sugarcane), yeast two-hybrid fusion (other)
chain: GHYGRGEHCMKNMAASYSQDAQLDLVLPDAPVDASASRSEHSSQLASSNWRSVIQNSPPDLLCGCGRPAIRRTAETAKNNGRIFRTCPACKIWIWQDLLDSYVNALISYCRDASIDSLQSELESSRLLISEKQAQISRLEKQLETLQPLISKYTEQSRSIAQASIPSSLFFLEACSLRHQRRRVNENQGGANFKRSYWSD
notes: Prey clone from the cDNA library of silenced sugarcane plant #16; same id for bait and prey fusions
Turning to B1, the binding result in data set [1] is recorded as “binds”.

B2: 35S labeled RNase H-like protein transcription and translation (TNT) product (other)
chain: GHYGRGEHCMKNMAASYSQDAQLDLVLPDAPVDASASRSEHSSQLASSNWRSVIQNSPPDLLCGCGRPAIRRTAETAKNNGRIFRTCPACKIWIWQDLLDSYVNALISYCRDASIDSLQSELESSRLLISEKQAQISRLEKQLETLQPLISKYTEQSRSIAQASIPSSLFFLEACSLRHQRRRVNENQGGANFKRSYWSD
modifications: labeled with 35S Cysteine
notes: Made in rabbit reticulocyte lysate; used as probe in farwestern blots and as the labelled partner in the pull down
On to B2, for which the binding result in data set [2], in data set [3] and in data set [4] was “no binding” throughout.
